The target of experiment [1] is superfolder Cherry (sfCherry). Put plainly: native gel or EMSA; native polyacrylamide gel at ∼10 mg/ml protein concentration.
In experiment [2] the target is superfolder Cherry (sfCherry). Put plainly: crystal structure; sfCherry alone, 2.0 Å, space group P21, eight copies in the asymmetric unit; 0.1 M SPG buffer pH 5.0, 25% PEG 1500.

This is an account of results in PMC3852656.

Usually stoichiometry N stands for a count of units in the complex or per binding partner.

Consider superfolder Cherry (sfCherry), for which the percent dimer in experiment [1] came out at 50%. For the same substance, the stoichiometry N in experiment [1] and in experiment [2] was 2 in each case.
